Assay results: patent US20180306791A1 (GlaxoSmithKline, published 2018)
Blank lines part the entries; values can stand above or below the binder they belong to.

Tests used:
[1] = target: T1, BCMA (human, UniProt Q02223 1-184); test: flow cytometry, CD138+ gated bone marrow cells of patient GSK050 (group MODERATE); ratio of MFI to IgG2a-488 control
T1 construct: whole, on cells; Endogenous on human cell lines and patient cells, or from plasmid pCDNA3.1 hBCMA in ARH-77 cells; also called CD269; TNFRSF17
T1 sequence (looked up): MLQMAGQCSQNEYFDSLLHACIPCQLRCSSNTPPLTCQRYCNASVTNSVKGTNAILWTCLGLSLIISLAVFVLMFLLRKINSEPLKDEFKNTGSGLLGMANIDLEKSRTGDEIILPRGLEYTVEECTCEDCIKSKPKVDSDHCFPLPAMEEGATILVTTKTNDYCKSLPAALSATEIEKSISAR

[2] = target: T1, BCMA; test: flow cytometry, CD138+ gated bone marrow cells of patient GSK039 (group HIGH); ratio of MFI to IgG2a-488 control
[3] = target: T1, BCMA; test: flow cytometry on SUPT1 cells (non-MM line, sheet group NEGATIVE for BCMA); ratio of MFI to isotype IgG2a-488; reflects absence of the target on these cells
[4] = target: T1, BCMA; test: flow cytometry, CD138+ gated bone marrow cells of patient GSK048 (group HIGH); ratio of MFI to IgG2a-488 control
[5] = target: T1, BCMA; test: flow cytometry on KMM1 cells (sheet group NEGATIVE, text: low BCMA expression); ratio of MFI to isotype IgG2a-488; reflects the low level of the target on these cells
[6] = target: T1, BCMA; test: flow cytometry inset, low BCMA-transduced (LOW) ARH77 cells; ratio to isotype control
[7] = target: T1, BCMA; test: flow cytometry inset, non-transduced (NT) ARH77 cells with negligible surface BCMA; ratio to isotype control
[8] = target: T1, BCMA; test: flow cytometry on Daudi cells (non-MM line; group LOW); ratio of MFI to isotype IgG2a-488
[9] = target: T1, BCMA; test: flow cytometry on H929 cells (sheet group HIGH); ratio of MFI of BCMA stained to isotype IgG2a-488 stained cells
[10] = target: T1, BCMA; test: flow cytometry on RPMI8226 cells (printed RPM18226; group LOW); ratio of MFI to isotype IgG2a-488
[11] = target: T1, BCMA; test: flow cytometry on MM1.s cells (sheet group MODERATE); ratio of MFI to isotype IgG2a-488
[12] = target: T1, BCMA; test: flow cytometry on Raji cells (non-MM line, sheet group NEGATIVE for BCMA); ratio of MFI to isotype IgG2a-488; reflects absence of the target on these cells
[13] = target: T1, BCMA; test: flow cytometry, CD138+ gated bone marrow cells of patient GSK034 (group MODERATE); ratio of MFI to IgG2a-488 control
[14] = target: T1, BCMA; test: flow cytometry, CD138+ gated bone marrow cells of patient GSK045 (group MODERATE); ratio of MFI to IgG2a-488 control
[15] = target: T1, BCMA; test: flow cytometry on U266 cells (sheet group MODERATE); ratio of MFI to isotype IgG2a-488
[16] = target: T1, BCMA; test: flow cytometry on OPM2 cells (sheet group MODERATE); ratio of MFI to isotype IgG2a-488
[17] = target: T1, BCMA; test: flow cytometry on JJN3 cells (printed JIN3 on the sheet; group MODERATE); ratio of MFI to isotype IgG2a-488
[18] = target: T1, BCMA; test: flow cytometry on JIM3 cells (sheet group MODERATE); ratio of MFI to isotype IgG2a-488
[19] = target: T1, BCMA; test: flow cytometry, CD138+ gated bone marrow cells of patient GSK064 (group LOW); ratio of MFI to IgG2a-488 control
[20] = target: T1, BCMA; test: flow cytometry, CD138+ gated bone marrow cells of patient GSK072 (group LOW); ratio of MFI to IgG2a-488 control
[21] = target: T1, BCMA; test: flow cytometry inset, high BCMA-transduced (HIGH) ARH77 cells; ratio to isotype control
[22] = target: T1, BCMA; test: flow cytometry of CD138+ cells of patient GSK048; number in the title of panel II
Description: (§1) FIG. 14: J6M0-MMAF activity on primary CD138+ cells. (A) BM MNCs from one representative patient (GSK 087) with moderate BCMA expression incubated with J6M0-MMAF. Viable CD138+ cells (percentage of control) after 2 and 6 days (left panel) obtained by analyzing CD138+ cells by flow cytometry and gating CD138+ fraction (middle panel) onto AnnexinV/PI dot-plot (right panel). (B) Four representative experiments showing viable CD138+ cells after culture of BM MNCs from myeloma patients with concentrations of J6M0-MMAF at varying time points. For each patient, histogram showing binding of J6M0-wtFc PE to CD138+ cells (black) compared to cells pre-incubated with Fc block as control (white) and where available IHC staining with MIB1 (pink, nuclear) and CD138 (membrane, brown) as a measure of plasma cell proliferation.
(§2) For assessment of surface BCMA expression, murine anti-BCMA (clone 5307118G03, conjugated to AlexaFluor488), and the humanised antibody, J6M0-wtFc conjugated to PE were used in parallel. In the case of primary MM cells, staining was carried out on bone marrow (BM) mononuclear cells (MNCs) in 100μl PBS (Lonza)/0.5% BSA(PAA), using anti CD138 APC (Miltenyi), to identify tumour cells. […] A semi-quantitative measure of BCMA surface expression on MM cells was obtained from the ratio of the MFI of anti BCMA, versus isotype control stained samples (MFI ratio).

[23] = target: T1, BCMA; test: flow cytometry of CD138+ cells of patient GSK085; number in the title of panel III
Description: as §1, §2

[24] = target: T1, BCMA; test: flow cytometry of CD138+ cells of patient GSK087; number in the title of panel IV
Description: as §1, §2

- MFIr [1]: 6
- MFIr [2]: 11.2
- MFIr [3]: 1
- MFIr [4]: 11.2
- MFIr [5]: 1.1
- MFIr [6]: 16.6
- MFIr [7]: 1.8
- MFIr [8]: 2.9
- MFIr [9]: 15.3
- MFIr [10]: 2
- MFIr [11]: 6.8
- MFIr [12]: 1.2
- MFIr [13]: 4.8
- MFIr [14]: 3.8
- MFIr [15]: 5.8
- MFIr [16]: 4.5
- MFIr [17]: 4.6
- MFIr [18]: 5.7
- MFIr [19]: 2.5
- MFIr [20]: 2
- MFIr [21]: 54.8
B1: S307118G03 (antibody, from another filing, mouse IgG2a, V domains shown)
VH: EVQLQQSGPELVKPGASVKISCKASGYTFTDYYMKWVKQSHGKSLEWIGEIYPNNGGITYNQKFKGKATLTVDKSSSTAYMELRSLTSEDSAVYYCANGYEFVYWGQGTLVTVSA
VL: DIQMTQTASSLSASLGDRVTISCSASQGISNYLNWYQQKPDGTVKLLIYYTSSLHSGVPSRFSGSGSGTDYSLTISNLEPEDIATYYCQQYSKLPWTFGGGTKLEIKR

- MFI ratio [22]: 16.7
- MFI ratio [23]: 3.65
- MFI ratio [24]: 7
B2: J6M0-wtFc (antibody, IgG1, V domains shown)
VH: QVQLVQSGAEVKKPGSSVKVSCKASGGTFSNYWMHWVRQAPGQGLEWMGATYRGHSDTYYNQKFKGRVTITADKSTSTAYMELSSLRSEDTAVYYCARGAIYDGYDVLDNWGQGTLVTVSS
VL: DIQMTQSPSSLSASVGDRVTITCSASQDISNYLNWYQQKPGKAPKLLIYYTSNLHSGVPSRFSGSGSGTDFTLTISSLQPEDFATYYCQQYRKLPWTFGQGTKLEIKR
notes: PE-conjugated for flow cytometry; no sentence says it outright; also called J6M0-wtFc PE; wild type Fc form of J6M0
